Experimental findings from patent publication US20240228595A1 are described below.

Assay [1] has as its target SARS-COV-2 Omicron BA.1 spike on HIV-1 based pseudovirus (Example 3) (SARS-CoV-2 Omicron BA.1) (UniProt P0DTC2). As to the kind of experiment: cell-based or functional assay.
The target in assay [2] is SARS-COV-2 Omicron BA.2 spike on HIV-1 based pseudovirus (SARS-CoV-2 Omicron BA.2) (UniProt P0DTC2). The assay is described as follows: cell-based or functional assay.
The target of assay [3] is SARS-COV-2 Delta RBD (Sino Biological Cat. No. 40592-V08H90) (SARS-CoV-2 Delta) (UniProt P0DTC2). As to the kind of experiment: ELISA, SARS-CoV-2-Delta RBD coated, antibody titrated.
The target of assay [4] is SARS-COV-2 Omicron RBD recombinant protein (Sino Biological 40592-V08H121) (SARS-CoV-2 Omicron BA.1) (UniProt P0DTC2). As to the kind of experiment: ELISA, SARS-CoV-2-Omicron BA.1 RBD coated, antibody titrated.
For assay [5], the target named is SARS-COV-2 Omicron BA.2 RBD (AcroBiosystems Cat. No. SPD-C522g) (SARS-CoV-2 Omicron BA.2) (UniProt P0DTC2). As to the kind of experiment: ELISA, SARS-CoV-2-Omicron BA.2 RBD coated, antibody titrated.

Turning to S309 (Sotrovimab) (antibody), the pseudovirus neutralization, IC50 in assay [1] amounted to 446 ng/mL; in assay [2], 2750 ng/mL. The pseudovirus neutralization, fold drop of activity against Omicron BA.2 in assay [2] is 30 fold. In addition, the EC50 in assay [3] worked out at 2 ng/mL; in assay [4], 6 ng/mL; in assay [5], 4 ng/mL.
